From US20230242646A1 (JJP BIOLOGICS SP Z O O, published 2023)
Residue numbers refer to the chain shown, from its start.

Tests used:
[1] = biological target: T1, membrane-bound full-length human CD89 on HEK293F cells (human, UniProt P24071 22-287); assay: FACS, antibody before serum IgA on HEK293F-huCD89; IgA detected
T1 construct: 2 or transient transfectants; also called membrane human CD89; human FcaRI
Experimental: Then, 10 µL/tube (i.e., 0.1 x 10⁶ cells) of these cells were incubated with 50 µL titrated (in PBS/BSA/NaN₃) purified mouse anti-human CD89 antibody/tube for 30 minutes at 4° C. […] After extensive washing in PBS/BSA/NaN₃, 1:200 diluted PE-conjugated streptavidin (Jackson ImmunoResearch) was added, and incubated for 30 minutes at 4° C. After extensive washing in PBS/BSA/NaN₃, cells were fixed in 2% formaldehyde in PBS/BSA/NaN₃ for 30 minutes at 4° C.

[2] = biological target: T2, chimeric bovine EC1-Fcgamma2R/human EC2-CD89 on HEK293F cells (bovine/human chimera); assay: FACS, transiently transfected HEK293F
T2 chain: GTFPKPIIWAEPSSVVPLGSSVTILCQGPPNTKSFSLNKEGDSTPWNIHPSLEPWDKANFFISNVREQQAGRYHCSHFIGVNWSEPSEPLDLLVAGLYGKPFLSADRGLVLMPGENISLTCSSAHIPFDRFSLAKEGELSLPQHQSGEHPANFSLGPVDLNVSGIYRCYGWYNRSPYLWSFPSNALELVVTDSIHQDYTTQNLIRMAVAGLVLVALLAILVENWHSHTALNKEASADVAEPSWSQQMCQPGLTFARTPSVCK

[3] = biological target: T3, recombinant C-terminal polyhistidine-tagged human (extracellular) CD89 (Sino Biological) (human, UniProt P24071 22-227); assay: ELISA on coated rhuCD89
T3 construct: extracellular domain; bought protein; also called rhuCD89; soluble monomeric rhuCD89
Experimental: After extensive washing with PBS/0.05% Tween 20, plates were blocked with PBS/0.05% Tween 20/1% BSA (Roche) for 1 hour at RT. Subsequently, plates were incubated with 50 µL titrated (in block buffer) purified mouse anti-human CD89 antibody/well for 1 hour at RT. […] After extensive washing in PBS/0.05% Tween 20, binding of antibodies on rhuCD89 was determined with 1:5,000 diluted horseradish peroxidase (HRP)-conjugated goat anti-mouse IgG Fcy-specific antibodies (Jackson ImmunoResearch) for 1 hour at RT, followed by a ready-to-use solution of TMB substrate (Invitrogen) for colorimetric detection.

[4] = biological target: T3, recombinant C-terminal …; assay: ELISA, coated rhuCD89
[5] = biological target: T1, membrane-bound full-length human CD89 …; assay: FACS on HEK293F-huCD89
Experimental: Then, 10 µL/tube (i.e., 0.1 x 10⁶ cells) of these cells were incubated with 100 µL titrated (in PBS/BSA/NaN₃) purified mouse anti-human CD89 antibody/tube for 30 minutes at 4° C. […] After extensive washing in PBS/BSA/NaN₃, cells were subsequently incubated with 1:200 diluted PE-conjugated goat anti-mouse IgG Fcy-specific antibodies (Jackson ImmunoResearch) for 30 minutes at 4° C. After extensive washing in PBS/BSA/NaN₃, cells were fixed in 2% formaldehyde in PBS/BSA/NaN₃ for 30 minutes at 4° C.

[6] = biological target: T3, recombinant C-terminal …; assay: ELISA, antibody before serum IgA on coated rhuCD89; IgA detected
Experimental: After extensive washing with PBS/0.05% Tween 20, plates were blocked with PBS/0.05% Tween 20/1% BSA (Roche) for 1 hour at RT. Subsequently, plates were incubated with 25 µL titrated (in block buffer) purified mouse anti-human CD89 antibody/well for 30 minutes at RT. […] After extensive washing in PBS/0.05% Tween 20, 1:10,000 diluted HRP-conjugated streptavidin (Jackson ImmunoResearch) was added, and incubated for 1 hour at RT, followed by a ready-to-use solution of TMB substrate (Invitrogen) for colorimetric detection.

[7] = biological target: T4, chimeric human/cynomolgus monkey CD89-I on HEK293F cells (human/cynomolgus chimera, UniProt P24071 22-287); assay: FACS, 10 µg/mL, transiently transfected HEK293F
T4 construct: also called dGln22 - Lys46 human EC1-CD89; I (22-46)
T4 chain: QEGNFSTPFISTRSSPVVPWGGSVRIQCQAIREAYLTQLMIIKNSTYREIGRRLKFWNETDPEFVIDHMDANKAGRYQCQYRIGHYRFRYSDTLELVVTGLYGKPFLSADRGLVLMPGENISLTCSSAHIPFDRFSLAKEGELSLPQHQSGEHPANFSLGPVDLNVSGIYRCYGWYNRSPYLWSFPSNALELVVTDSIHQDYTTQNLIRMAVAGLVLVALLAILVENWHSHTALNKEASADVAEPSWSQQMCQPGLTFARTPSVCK

[8] = biological target: T5, chimeric human/cynomolgus monkey CD89-IV on HEK293F cells (human/cynomolgus chimera, UniProt P24071 22-287); assay: FACS, 10 µg/mL, transiently transfected HEK293F
T5 construct: also called dArg97 - Gly121 human EC1-CD89
T5 chain: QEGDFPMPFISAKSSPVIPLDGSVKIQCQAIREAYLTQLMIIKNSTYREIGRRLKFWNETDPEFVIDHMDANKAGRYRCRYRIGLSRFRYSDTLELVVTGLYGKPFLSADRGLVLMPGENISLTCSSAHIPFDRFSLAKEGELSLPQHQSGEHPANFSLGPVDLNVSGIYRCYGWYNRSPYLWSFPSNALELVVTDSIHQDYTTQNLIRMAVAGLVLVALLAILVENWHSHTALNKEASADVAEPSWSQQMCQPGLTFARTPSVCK

[9] = biological target: T6, chimeric human/cynomolgus monkey CD89-II on HEK293F cells (human/cynomolgus chimera, UniProt P24071 22-287); assay: FACS, 10 µg/mL, transiently transfected HEK293F
T6 construct: also called dIle47 - Ile71 human EC1-CD89; II (47-71)
T6 chain: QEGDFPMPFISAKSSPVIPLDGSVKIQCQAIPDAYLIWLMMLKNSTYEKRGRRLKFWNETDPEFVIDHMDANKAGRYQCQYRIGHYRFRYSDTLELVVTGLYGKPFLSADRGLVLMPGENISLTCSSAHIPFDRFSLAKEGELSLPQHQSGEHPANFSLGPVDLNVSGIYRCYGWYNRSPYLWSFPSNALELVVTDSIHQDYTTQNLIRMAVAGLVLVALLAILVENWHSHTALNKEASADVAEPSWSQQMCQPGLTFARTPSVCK

[10] = biological target: T1, membrane-bound full-length human CD89 …; assay: FACS HEK293F-huCD89, 10 ug/mL; competitor PE-A3
Experimental: (§1) Then, 10 µL/tube (i.e., 0.1 × 10⁶ cells) of these cells were incubated with or without 100 µL purified mouse anti-human CD89 antibody at 10 µg/mL (in PBS/BSA/NaN₃) for 30 minutes at 4° C. […] After extensive washing in PBS/BSA/NaN₃, cells were fixed in 2% formaldehyde in PBS/BSA/NaN₃ for 30 minutes at 4° C.

[11] = biological target: T7, chimeric human/cynomolgus monkey CD89-hotspots on HEK293F cells (human/cynomolgus chimera, UniProt P24071 22-287); assay: FACS, transiently transfected HEK293F
T7 construct: also called dThr58, Gln59; dArg73, Arg74, Lys76
T7 chain: T5 chain with T37I, Q38W, R52E, R53K, K55G, R78Q, R80Q
Experimental: (§2) To this end, transient transfected HEK293F cells were put at 10 × 10⁶ cells/mL in ice-chilled phosphate-buffered saline containing 0.1% BSA (Sigma)/0.05% NaN₃ (PBS/BSA/NaN₃) supplemented with 50 µg/mL human IgGs (blocking FcY receptors; Sigma) for 10 minutes at 4° C. Then, 10 µL/tube (i.e., 0.1 × 10⁶ cells) of these cells were incubated with or without 100 µL purified mouse anti-human CD89 antibody at 10 µg/mL (in PBS/BSA/NaN₃) for 30 minutes at 4° C. […] After extensive washing in PBS/BSA/NaN₃, cells were subsequently incubated with 1:200 diluted PE-conjugated goat anti-mouse IgG Fcy-specific antibodies (Jackson ImmunoResearch) for 30 minutes at 4° C. After extensive washing in PBS/BSA/NaN₃, cells were fixed in 2% formaldehyde in PBS/BSA/NaN₃ for 30 minutes at 4° C.

[12] = biological target: T8, chimeric human/cynomolgus monkey CD89-III on HEK293F cells (human/cynomolgus chimera, UniProt P24071 22-287); assay: FACS, transiently transfected HEK293F
T8 construct: also called dGly72 - Gly96 human EC1-CD89; III (72-96)
T8 chain: T5 chain with G51D, R52E, R53K, K55G, E59D, D61T, R78Q, R80Q, L85H, S86Y
Experimental: as §2

[13] = biological target: T1, membrane-bound full-length human CD89 …; assay: FACS, antibody before secretory IgA on HEK293F-huCD89; IgA detected
[14] = biological target: T1, membrane-bound full-length human CD89 …; assay: FACS HEK293F-huCD89
Experimental: After extensive washing in PBS/BSA/NaN₃, cells were subsequently incubated with 1:200 diluted PE-conjugated goat anti-human IgG Fcy-specific antibodies (Jackson ImmunoResearch) for 30 minutes at 4° C. After extensive washing in PBS/BSA/NaN₃, cells were fixed in 2% formaldehyde in PBS/BSA/NaN₃ for 30 minutes at 4° C.

[15] = biological target: T1, membrane-bound full-length human CD89 …; assay: FACS HEK293F-huCD89, 10 ug/mL; competitor PE-A59
Experimental: as §1

[16] = biological target: T1, membrane-bound full-length human CD89 …; assay: FACS HEK293F-huCD89, 10 ug/mL; competitor PE-MIP8a
Experimental: as §1

[17] = biological target: T9, membrane full-length cynomolgus monkey CD89 on HEK293F cells (cynomolgus monkey); assay: FACS, transiently transfected HEK293F
T9 construct: also called cynoCD89; cynomolgus EC1-CD89
T9 chain: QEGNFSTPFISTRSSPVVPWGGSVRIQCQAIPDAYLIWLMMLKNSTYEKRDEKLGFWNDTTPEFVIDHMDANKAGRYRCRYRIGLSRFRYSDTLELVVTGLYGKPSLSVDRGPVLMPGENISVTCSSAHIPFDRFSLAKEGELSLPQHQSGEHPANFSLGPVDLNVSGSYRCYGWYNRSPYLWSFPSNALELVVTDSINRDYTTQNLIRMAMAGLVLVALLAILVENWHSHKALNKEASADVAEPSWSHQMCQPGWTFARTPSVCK
Experimental: To this end, transient transfected HEK293F cells were put at 10 x 10⁶ cells/mL in ice-chilled phosphate-buffered saline containing 0.1% BSA (Sigma)/0.05% NaN₃ (PBS/BSA/NaN₃) supplemented with 50 µg/mL human IgGs (blocking FcY receptors; Sigma) for 10 minutes at 4° C. Then, 10 µL/tube (i.e., 0.1 × 10⁶ cells) of these cells were incubated with or without 100 µL purified mouse anti-human CD89 antibody at 10 µg/mL (in PBS/BSA/NaN₃) for 30 minutes at 4° C. […] After extensive washing in PBS/BSA/NaN₃, cells were subsequently incubated with 1:200 diluted PE-conjugated goat anti-mouse IgG Fcy-specific antibodies (Jackson ImmunoResearch) for 30 minutes at 4° C. After extensive washing in PBS/BSA/NaN₃, cells were fixed in 2% formaldehyde in PBS/BSA/NaN₃ for 30 minutes at 4° C.

IC50 (read off the curve) [1]: ~0.8 µg/mL | binding result [2]: no binding (tested: 10 µg/mL) | EC50 (read off the curve) [3]: ~0.03 µg/mL | EC50 [4]: 0.052 µg/mL | EC50 (read off the curve) [5]: ~0.4 µg/mL | IC50 (read off the curve) [6]: ~0.09 µg/mL | binding result [7]: binds | binding result [8]: binds | binding result [9]: binds | % blocking of PE-A3 binding [10]: < 25% | binding result [11]: no binding (tested: 10 µg/mL) | binding result [12]: no binding (tested: 10 µg/mL) | IC50 (read off the curve) [13]: ~0.8 µg/mL | EC50 [14]: 0.714 µg/mL | % blocking of PE-A59 binding [15]: < 25% | % blocking of PE-MIP8a binding [16]: < 25% | binding result [17]: no binding (tested: 10 µg/mL)
B1: CD89/IgA blocking mouse anti-human CD89-specific antibody 8F3 (antibody, V domains shown)
VH: EVQLVESGGGLVKPGGSLKLSCAASGFTFSNYGMSWVRQTPDKRLEWVATMHSGGTYTYYPDNVKGRFTISRDNAKNNLYLQMSSLRSEDTAMYYCARETGLYDGLFDFWGQGTTLTVSS
VL: DVQITQSPSYLAASPGETITINCRASKTISKYLAWYQEKPGKTNMLLIYSGSTLQSGVPSRFSGSGSGTDFTLTISSLEPEDLAMYYCQQHDEYPWTFGGGTKLEIK
notes: also called mouse 8F3
